These are literature values, as cited in paper PMC4155411.

In the data set the target is HPr (Escherichia coli) (UniProt P0AA04). In words: PRE NMR titration.

For the substance “Enzyme I N-terminal domain (EIN) N-terminal domain (from UniProt P08839)”, the Kd was 7 µM.
